Drawing on patent US20030087319A1 (published 2003), this text covers binding result and decrease in caspase activity (DEVD-AFC cleavage) in HeLa cells treated with TNF-a and cycloheximide for two molecules.

In assay [1] the target is T1, recombinant active caspase-3 (PharMingen) (UniProt P42574 29-277, limits assumed).
T1 sequence (looked up): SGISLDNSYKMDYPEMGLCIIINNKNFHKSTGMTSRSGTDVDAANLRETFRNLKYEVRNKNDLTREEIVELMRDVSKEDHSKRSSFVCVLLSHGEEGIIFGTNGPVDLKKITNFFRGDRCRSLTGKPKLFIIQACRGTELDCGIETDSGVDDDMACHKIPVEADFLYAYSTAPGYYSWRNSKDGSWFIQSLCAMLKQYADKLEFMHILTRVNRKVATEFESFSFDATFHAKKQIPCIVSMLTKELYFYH
As to the kind of experiment: in vitro binding, 35S-labeled protein with recombinant active caspase, immunoprecipitation with caspase-specific antibodies, autoradiography. How it is done: Binding between livin and caspases was tested by incubating ³⁵[S]-methionine-labeled livin with recombinant active caspase-3 and -7, immunoprecipitating with caspase specific antibodies, resolving on SDS-PAGE and visualising by autoradiography. Both caspase-3 and -7 interacted with livin, but not with the deletion mutant DC89 used as a negative control. Survivin, which was previously shown to interact with these caspases using whole cell lysates (Tamm et al., ibid), also bound to both caspases in this in vitro assay.
In vitro binding reactions were performed by combining recombinant active caspase-3 or -7 (PharMingen, San Diego, Calif.) with ³⁵[S]-methionine-labeled survivin or livin (wild-type and the three deletion mutants described herein), prepared using the TNT T7 reticulocyte lysate system (Promega Corp., Madison, Wis.). Samples were incubated with polyclonal antibodies against either caspase-3 or -7 (PharMingen, San Diego, Calif.) in 0.5 ml NETN buffer [20 mM Tris (pH 8.0), 100 mM NaCl, 1 mM EDTA, and 0.2% NP-40] for 1.5 hrs at 4° C. followed by protein G sepharose (Amersham Pharmacia Biotech, Piscataway N.J.) for 30 min. All samples were then washed three times in NETN buffer, boiled in Laemmli buffer, and resolved by 4-20% SDS-PAGE. […]

The target of assay [2] is DEVD-cleaving caspases (caspase-3, -6, -7, -8, and -10). The assay is described as follows: cell-based or functional assay.

B1: livin deletion mutant DC89 (other)
chain: MGPKDSAKCLHRGPQPSHWAAGDGPTQERCGPRSLGSPVLGLDTCRAWDHVDGQILGQLRPLTEEEEEEGAGATLSRGPAFPGMGS
modifications: 35[S]-methionine-labeled
notes: also called DC86; NH2-terminal fragment (amino acids 1-86); not shown: myc-His tag from the vector pcDNA3.1/myc-His
In the case of B1, the binding result in assay [1] was “no binding”.

B2: livin expressed from pcDNA3.1/V5/His-TOPO-livin in transfected HeLa cells, Q96CA5 1-298 (protein, not shown: small tags and cut ends)
chain: MGPKDSAKCLHRGPQPSHWAAGDGPTQERCGPRSLGSPVLGLDTCRAWDHVDGQILGQLRPLTEEEEEEGAGATLSRGPAFPGMGSEELRLASFYDWPLTAEVPPELLAAAGFFHTGHQDKVRCFFCYGGLQSWKRGDDPWTEHAKWFPSCQFLLRSKGRDFVHSVQETHSQLLGSWDPWEEPEDAAPVAPSVPASGYPELPTPRREVQSESAQEPGARDVEAQLRRLQEERTCKVCLDRAVSIVFVPCGHLVCAECAPGLQLCPICRAPVRSRVRTFLS
In turn, B2 displayed a decrease in caspase activity (DEVD-AFC cleavage) in HeLa cells treated with TNF-a and cycloheximide in assay [2] of 15 to 20%.
